Data as given in US20050054833A1 (published 2005).
Blank lines part the entries; values can stand above or below the binder they belong to.

Key:
human CD23 [1] = molecular target: T1, human CD23 (human, UniProt P06734 1-321); test: apparent Kd
T1 chain: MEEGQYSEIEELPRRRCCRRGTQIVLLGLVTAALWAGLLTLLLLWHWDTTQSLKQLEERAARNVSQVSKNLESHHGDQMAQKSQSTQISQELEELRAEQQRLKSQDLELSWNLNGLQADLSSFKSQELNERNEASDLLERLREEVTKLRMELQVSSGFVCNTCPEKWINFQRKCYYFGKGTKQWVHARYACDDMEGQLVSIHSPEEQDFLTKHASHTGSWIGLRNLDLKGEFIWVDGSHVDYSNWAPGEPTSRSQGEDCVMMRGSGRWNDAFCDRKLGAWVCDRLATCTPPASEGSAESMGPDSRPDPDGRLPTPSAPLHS

human CD23 [2] = molecular target: T1, human CD23; test: apparent Kd; replicate 1
human CD23 [3] = molecular target: T1, human CD23; test: apparent Kd; replicate 2
human CD23 [4] = molecular target: T1, human CD23; test: apparent Kd; replicate 3
human CD23 [5] = molecular target: T1, human CD23; test: apparent Kd; replicate 4
p5E8G1 = test: apparent Kd
p5E8G1N- = test: apparent Kd

Kd (human CD23 [1]): 0.3 nM
B1: PRIMATIZED antibody p5E8G4PN- (antibody, V domains shown)
VH: EVQLVESGGGLAKPGGSLRLSCAASGFRFTFNNYYMDWVRQAPGQGLEWVSRISSSGDPTWYADSVKGRFTISRENAKNTLFLQMNSLRAEDTAVYYCASLTTGSDSWGQGVLVTVSS
VL: DIQMTQSPSSLSASVGDRVTITCRASQDIRYYLNWYQQKPGKAPKLLIYVASSLQSGVPSRFSGSGSGTEFTLTVSSLQPEDFATYYCLQVYSTPRTFGQGTKVEIK

Kd (human CD23 [2]): 0.5 nM
Kd (human CD23 [3]): 1.5 nM
Kd (human CD23 [4]): 1.8 nM
Kd (human CD23 [5]): 4.4 nM
B2: primate anti-human CD23 monoclonal antibody 5E8 (antibody, V domains shown)
VH: EVQLVESGGGLAKPGGSLRLSCAASGFRFTFNNYYMDWVRQAPGQGLEWVSRISSSGDPTWYADSVKGRFTISRENANNTLFLQMNSLRAEDTAVYYCASLTTGSDSWGQGVLVTVSS
VL: DIQMTQSPSSLSASVGDRVTITCRASQDIRYYLNWYQQKPGKAPKLLIYVASSLQSGVPSRFSGSGSGTEFTLTVSSLQPEDFATYYCLQVYSTPRTFGQGTKVEIK
modifications: N-linked oligosaccharide at the asparagine of the heavy chain variable region glycosylation site (Kabat 75)

Kd (human CD23 [2]): 0.3 nM
Kd (human CD23 [3]): 1 nM
B3: PRIMATIZED antibody p5E8G4P (antibody, V domains shown)
VH: EVQLVESGGGLAKPGGSLRLSCAASGFRFTFNNYYMDWVRQAPGQGLEWVSRISSSGDPTWYADSVKGRFTISRENANNTLFLQMNSLRAEDTAVYYCASLTTGSDSWGQGVLVTVSS
VL: DIQMTQSPSSLSASVGDRVTITCRASQDIRYYLNWYQQKPGKAPKLLIYVASSLQSGVPSRFSGSGSGTEFTLTVSSLQPEDFATYYCLQVYSTPRTFGQGTKVEIK
modifications: N-linked oligosaccharide at the asparagine of the heavy chain variable region glycosylation site (Kabat 75)

Kd (p5E8G1): 0.7 nM
Kd (p5E8G1N-): 0.7 nM
B4: CD23 (receptor)
chain: MEEGQYSEIEELPRRRCCRRGTQIVLLGLVTAALWAGLLTLLLLWHWDTTQSLKQLEERAARNVSQVSKNLESHHGDQMAQKSQSTQISQELEELRAEQQRLKSQDLELSWNLNGLQADLSSFKSQELNERNEASDLLERLREEVTKLRMELQVSSGFVCNTCPEKWINFQRKCYYFGKGTKQWVHARYACDDMEGQLVSIHSPEEQDFLTKHASHTGSWIGLRNLDLKGEFIWVDGSHVDYSNWAPGEPTSRSQGEDCVMMRGSGRWNDAFCDRKLGAWVCDRLATCTPPASEGSAESMGPDSRPDPDGRLPTPSAPLHS
